From patent US20090311714

T1: GlcNAc-MurNAc-L-Ala-D-iGln-L-(N-epsilon-D-iAsn)Lys-D-Ala
T1 chain: AQKA

T2: GlcNAc-MurNAc-L-Ala-D-iGln-L-Lys-D-Ala
T2 chain: AQKA

T3: GlcNAc-MurNAc-L-Ala-D-iGlu-L-(N-epsilon-D-iAsn)Lys-D-Ala (not fully specified)
T3 chain: AEKA

T4: L-Ala-D-iGlu-L-Lys-D-Ala (not fully specified)
T4 chain: AEKA

T5: N-alpha,N-epsilon-diacetyl-L-lysyl-D-alanine
T5 chain: KA

T6: UDP-MurNAc-L-Ala-D-iGlu-L-Lys-D-Ala (not fully specified)
T6 chain: AEKA

B1: D-aspartate ligase of Enterococcus faecium (Aslfm) (protein)
chain: MMNSIENEEFIPILLGSDMNVYGMARSFNEAYGKICQAYASDQLAPTRYSKIVNVEVIPGFDKDPVFIETMLRLAKERYSDKSKKYLLIACGDGYAELISQHKQELSEYFICPYIDYSLFERLINKVSFYEVCEEYDLPYPKTLIVREEMLVNGHLEQELPFEFPVALKPANSVEYLSVQFEGRKKAFILETREEFDLILGRIYEAGYKSEMIVQDFIPGDDSNMRVLNAYVDEDHQVRMMCLGHPLLEDPTPASIGNYVVIMPDYNEKIYQTIKAFLEKIEYTGFANFDMKYDPRDGEYKLFEINLRQGRSSFFVTLNGLNLARFVTEDRVFNKPFVETTYGTNQSDKARLWMGVPKKIFLEYARENEDKKLAEQMIKENRYGTTVFYEKDRSIKRWLLMKYMFHNYIPRFKKYFHVKEG
B2: L,D-transpeptidase of Enterococcus faecium M512 (Ldtfm), soluble recombinant fragment, residues 119 to 466, with C-terminal polyhistidine tag (protein)
chain: MAEKQEIDPVSQNHQKLDTTVQTLTTKLTDLNKDRTPTTDATIEKAGDSFVIKPEVNGNTIDVDAAVKQLKSAVNSGKDTIELTEFKEKPKVTSEDSSLKEQLASMNAIANVKATYSINGETFQIPSSDIMSWLTYNDGKVDLDTEQVRQYVTDLGTKYNTSTNDTKFKSTKRGEVTVPVGTYSWTIQTDSETEALKKAILAGQDFTRSPIVQGGTTADHPLIEDTYIEVDLENQHMWYYKDGKVALETDIVSGKPTTPTPAGVFYVWNKEEDATLKGTNDDGTPYESPVNYWMPIDWTGVGIHDSDWQPEYGGDLWKTRGSHGCINTPPSVMKELFGMVEKGTPVLVFGSHHHHHH

What was measured:
[1] = target: UDP-MurNAc-L-Ala-D-iGlu-L-Lys-D-Ala-D-Ala
[2] = target: T1, GlcNAc-MurNAc-L-Ala-D-iGln-L-(N-epsilon- …)
[3] = target: T2, GlcNAc-MurNAc-L-Ala-D-iGln-L-Lys-D-Ala
[4] = target: GlcNAc-MurNAc-L-Ala-D-iGlu-L-(N-epsilon-D-iAsn)Lys-D-Ala-D-Ala
[5] = target: T3, GlcNAc-MurNAc-L-Ala-D-iGlu-L-(N-epsilon- …)
[6] = target: L-Ala-D-iGlu-L-Lys-D-Ala-D-Ala
[7] = target: T4, L-Ala-D-iGlu-L-Lys-D-Ala
[8] = target: T5, N-alpha,N-epsilon-diacetyl-L-lysyl-D-ala …
[9] = target: T6, UDP-MurNAc-L-Ala-D-iGlu-L-Lys-D-Ala

Protein	formation of [14C]UDP-MurNac-hexapeptide in the D-aspartate ligase assay [1]	formation of dimers, by mass spectrometry (in vitro L,D-transpeptidation) [2]	formation of dimers, by mass spectrometry (in vitro L,D-transpeptidation) [3]	formation of radioactive peptides in the exchange assay with D-[14C]Ala as the acceptor [4]	formation of radioactive peptides in the exchange assay with D-[14C]Ala as the acceptor [5]	formation of radioactive peptides in the exchange assay with D-[14C]Ala as the acceptor [6]	formation of radioactive peptides in the exchange assay with D-[14C]Ala as the acceptor [7]	formation of radioactive peptides in the exchange assay with D-[14C]Ala as the acceptor [8]	formation of radioactive peptides in the exchange assay with D-[14C]Ala as the acceptor [1]	formation of radioactive peptides in the exchange assay with D-[14C]Ala as the acceptor [9]
B1	Addition of 2 µg of purified protein in the D-aspartate ligase assay resulted in the formation of a radioactive product corresponding to the labeled hexapeptide	–	–	–	–	–	–	–	–	–
B2	–	formation of dimers with two types of donors (tetrapeptide and tetrapeptide-iAsn) and two types of acceptors (tetrapeptide-iAsn and tripeptide-iAsn) in the four possible combinations	formation of dimers with two types of donors (tetrapeptide and tetrapeptide-iAsn) ...; The muropeptide containing an unsubstituted tetrapeptide stem was not used as an acceptor	Formation of radioactive peptides was not detected	Formation of radioactive peptides was observed ... also with the complete disaccharide-tetrapeptide(iAsn) peptidoglycan unit	Formation of radioactive peptides was not detected	Formation of radioactive peptides was observed ... with other donors containing a tetrapeptide ending in D-Ala	Formation of radioactive peptides was observed not only with Ac2-L-Lys-D-Ala	Formation of radioactive peptides was not detected	Formation of radioactive peptides was observed ... with other donors containing a tetrapeptide ending in D-Ala
